Here are results for 2 molecules from PMC6035183, “ETS transcription factors induce a unique UV damage signature that drives recurrent mutagenesis in melanoma”.

The target in data set [1] is T1, ETS1 (ETS1ΔN280) (UniProt P27577 280-440).
T1 sequence: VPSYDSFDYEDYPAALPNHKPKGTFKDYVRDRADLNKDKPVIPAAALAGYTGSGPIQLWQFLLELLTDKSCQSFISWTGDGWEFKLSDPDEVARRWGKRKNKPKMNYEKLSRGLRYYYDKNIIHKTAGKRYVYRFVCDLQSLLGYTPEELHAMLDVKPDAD
Description: EMSA; 4 pmol DNA, 0-32 pmol ETS1; two shifted bands at low ETS1; 25 mM Tris-Cl pH 7.9, 10% glycerol, 6 mM MgCl2, 0.5 mM EDTA, 60 mM KCl, 0.5 mM DTT, 200 ug/ml BSA; 40 ul, 40 min on ice; 8% native PAGE. Particulars: protein: recombinant; label: 5'-32P on S14 (TTCC strand); blunt. In general terms: In EMSA bound probe runs differently from free probe, usually more slowly.

Data set [2] deals with T1, ETS1 (ETS1ΔN280). Description: EMSA; 4 pmol DNA, 0-32 pmol ETS1; multiple shifted bands; 25 mM Tris-Cl pH 7.9, 10% glycerol, 6 mM MgCl2, 0.5 mM EDTA, 60 mM KCl, 0.5 mM DTT, 200 ug/ml BSA; 40 ul, 40 min on ice; 8% native PAGE. The conditions noted are these: protein: recombinant; label: 5'-32P on S15 (TTCC strand); blunt.

B1: RPL13A promoter fragment (dsDNA)
DNA 1: GTCCAATCCGGACATTCTTCCGGTTGGACC
DNA 2: GGTCCAACCGGAAGAATGTCCGGATTGGAC
modifications: 5'-biotin on S13
Take B1: in the data set with ETS1 (ETS1ΔN280) [1], the binding result is listed as “binds”.

B2: SDHD promoter fragment (dsDNA)
DNA 1: CTCGACTTCCGGTTCACCCAGCATTTCCTCTTCCCTGTT
DNA 2: AACAGGGAAGAGGAAATGCTGGGTGAACCGGAAGTCGAG
modifications: 5'-biotin on S16
On to B2, for which, in the data set with ETS1 (ETS1ΔN280) [2], the binding result is on record as “binds”.
